The results in this text go back to article PMC3342439 (Journal of the American Chemical Society, 2012).

Changes are numbered by the printed parent chain.

Common to all, as to experiment: BLI
On the technique in general: In BLI a coated tip is dipped into the sample, and binding shifts an interference pattern.

The target in assay [1] is T1, Germicidin synthase (Gcs), wild type (Streptomyces coelicolor, UniProt Q9K464 1-389).
T1 sequence (looked up): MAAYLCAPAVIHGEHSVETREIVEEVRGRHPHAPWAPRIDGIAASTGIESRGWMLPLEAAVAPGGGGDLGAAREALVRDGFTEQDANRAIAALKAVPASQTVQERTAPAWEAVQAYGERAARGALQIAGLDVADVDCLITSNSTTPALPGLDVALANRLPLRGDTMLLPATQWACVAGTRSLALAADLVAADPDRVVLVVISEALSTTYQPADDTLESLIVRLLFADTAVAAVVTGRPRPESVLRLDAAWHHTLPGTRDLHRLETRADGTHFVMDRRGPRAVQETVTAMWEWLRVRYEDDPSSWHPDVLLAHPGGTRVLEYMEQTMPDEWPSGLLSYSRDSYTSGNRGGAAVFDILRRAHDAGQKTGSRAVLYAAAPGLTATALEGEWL

Assay [2] addresses T2, Germicidin synthase (Gcs) R276A (Streptomyces coelicolor, UniProt Q9K464 1-389, R276A).
T2 sequence (looked up): T1 sequence (looked up) with R276A

Assay [3] addresses T3, Germicidin synthase (Gcs) R277A (Streptomyces coelicolor, UniProt Q9K464 1-389, R277A).
T3 sequence (looked up): T1 sequence (looked up) with R277A

In assay [4] the target is T4, Germicidin synthase (Gcs) R317A (Streptomyces coelicolor, UniProt Q9K464 1-389, R317A).
T4 sequence (looked up): T1 sequence (looked up) with R317A

In assay [5] the target is T5, Germicidin synthase (Gcs) R280A (Streptomyces coelicolor, UniProt Q9K464 1-389, R280A).
T5 sequence (looked up): T1 sequence (looked up) with R280A

In assay [6] the target is T6, Germicidin synthase (Gcs) R276/317A double mutant (Streptomyces coelicolor, UniProt Q9K464 1-389, R276/317A | R276/317A).
T6 sequence (looked up): T1 sequence (looked up) with R276A, R317A

B1: Acyl carrier protein AcpP (Sco2389), biotinylated (natural protein, Streptomyces coelicolor, UniProt P72393 1-82, looked up)
chain: MAATQEEIVAGLAEIVNEIAGIPVEDVKLDKSFTDDLDVDSLSMVEVVVAAEERFDVKIPDDDVKNLKTVGDATKYILDHQA
modifications: biotin (EZ-Link NHS-LC-LC-biotin, 5:1 molar ratio of biotin to protein)
For orientation: Kd means the free concentration of one partner at which half of the binding sites on the other are occupied at equilibrium, for simple one-to-one binding. A lower Kd goes with a tighter complex. For orientation: koff means the first-order rate constant of dissociation. High values mean fast dissociation, low ones slow dissociation. As a reminder, the kon is the second-order rate constant of association. Regarding B1, the Kd in assay [1] amounted to 225 nM; in assay [2] it was 185 nM; in assay [3], 403 nM; in assay [4], 161 nM; in assay [5], 184 nM; in assay [6], 192 nM. In addition, the koff in assay [1] came to 0.00022 s⁻¹; in assay [2], 0.000253 s⁻¹; in assay [3] it was 0.000128 s⁻¹; in assay [4] it was 0.000407 s⁻¹; in assay [5], 0.000122 s⁻¹; in assay [6], 0.00017 s⁻¹. Also, the kon was found to be 1190 M⁻¹ s⁻¹ in assay [1]; 628 M⁻¹ s⁻¹ in assay [2]; 695 M⁻¹ s⁻¹ in assay [3]; 1810 M⁻¹ s⁻¹ in assay [4]; 769 M⁻¹ s⁻¹ in assay [5]; 892 M⁻¹ s⁻¹ in assay [6].
